Measured values reported in patent publication US20220106400A1 (published 2022).
One block for each binder: values may come before it.

Molecular target: T1, human GITR on cells (human, UniProt Q9Y5U5 26-241)
T1 chain: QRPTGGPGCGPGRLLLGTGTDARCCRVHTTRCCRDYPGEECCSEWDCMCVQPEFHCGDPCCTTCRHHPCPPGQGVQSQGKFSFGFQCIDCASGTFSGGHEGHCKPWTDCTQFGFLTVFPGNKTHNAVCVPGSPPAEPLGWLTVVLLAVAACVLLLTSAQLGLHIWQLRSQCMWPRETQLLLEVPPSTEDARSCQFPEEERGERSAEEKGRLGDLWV
Assay: FACS binding to anti-CD3/CD28-activated human CD4 T cells

- EC50: 0.277 nM
B1: anti-GITR-IgG2 (antibody)
heavy: QVQLVESGGGVVQPGRSLRLSCAASGFTFSSYGMHWVRQAPGKGLEWVAVIWYEGSNKYYADSVKGRFTISRDNSKNTLYLQMNSLRAEDTAVYYCARGGSMVRGDYYYGMDVWGQGTTVTVSSASTKGPSVFPLAPCSRSTSESTAALGCLVKDYFPEPVTVSWNSGALTSGVHTFPAVLQSSGLYSLSSVVTVPSSNFGTQTYTCNVDHKPSNTKVDKTVERKCCVECPPCPAPPVAGPSVFLFPPKPKDTLMISRTPEVTCVVVDVSHEDPEVQFNWYVDGVEVHNAKTKPREEQFNSTFRVVSVLTVVHQDWLNGKEYKCKVSNKGLPAPIEKTISKTKGQPREPQVYTLPPSREEMTKNQVSLTCLVKGFYPSDIAVEWESNGQPENNYKTTPPMLDSDGSFFLYSKLTVDKSRWQQGNVFSCSVMHEALHNHYTQKSLSLSPGK
light: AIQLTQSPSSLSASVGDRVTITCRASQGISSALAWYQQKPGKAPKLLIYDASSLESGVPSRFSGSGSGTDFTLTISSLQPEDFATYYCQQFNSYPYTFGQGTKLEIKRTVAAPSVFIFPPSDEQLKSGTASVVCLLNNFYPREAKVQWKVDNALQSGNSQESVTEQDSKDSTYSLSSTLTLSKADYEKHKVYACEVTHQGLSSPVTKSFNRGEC

- EC50: 0.163 nM
B2: anti-GITR-IgG2-IgG1.1 (antibody)
heavy: QVQLVESGGGVVQPGRSLRLSCAASGFTFSSYGMHWVRQAPGKGLEWVAVIWYEGSNKYYADSVKGRFTISRDNSKNTLYLQMNSLRAEDTAVYYCARGGSMVRGDYYYGMDVWGQGTTVTVSSASTKGPSVFPLAPCSRSTSESTAALGCLVKDYFPEPVTVSWNSGALTSGVHTFPAVLQSSGLYSLSSVVTVPSSNFGTQTYTCNVDHKPSNTKVDKTVERKCCVECPPCPAPPVAGPSVFLFPPKPKDTLMISRTPEVTCVVVDVSHEDPEVKFNWYVDGVEVHNAKTKPREEQYNSTYRVVSVLTVLHQDWLNGKEYKCKVSNKALPSSIEKTISKAKGQPREPQVYTLPPSREEMTKNQVSLTCLVKGFYPSDIAVEWESNGQPENNYKTTPPVLDSDGSFFLYSKLTVDKSRWQQGNVFSCSVMHEALHNHYTQKSLSLSPG
light: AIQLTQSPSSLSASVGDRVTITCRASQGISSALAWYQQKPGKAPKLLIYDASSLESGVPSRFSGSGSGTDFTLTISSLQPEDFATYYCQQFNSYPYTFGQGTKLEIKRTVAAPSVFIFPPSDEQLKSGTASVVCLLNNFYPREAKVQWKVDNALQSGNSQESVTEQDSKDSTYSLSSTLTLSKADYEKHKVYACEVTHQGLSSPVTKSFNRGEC
